Experimental findings from US20100087005A1, “AUXILIARY REAGENT FOR GENE TRANSFER” (priority 2006, published 2010) are described below.

The assay concerns transgenic mice overexpressing full-length Del-1. Nature of the assay: In vivo gene transfer of human thermostable alkaline phosphatase gene (TransIT In Vivo Gene Delivery System) in Del-1 transgenic mice, serum AP activity. Conditions: tail vein injection of human thermostable alkaline phosphatase gene, serum 24 hours later, heat treated 65° C. 30 minutes, FIG. 5. Further details: species or system mouse. The protocol:
According to the ordinary method, transgenic mice in which cDNA of full-length Del-1 (i.e., DNA consisting of the nucleotide sequence represented by SEQ ID NO: 9) is overexpressed were prepared (see Hidai et al., Anatomical Record A, vol. 287A, pp. 1165-1175). Del-1 protein produced in cells of the transgenic mice is a protein having the amino acid sequence represented by SEQ ID NO: 10 (including the signal peptide). Del-1 protein secreted from the cells to the outside thereof is a protein having an amino acid sequence consisting of amino acid residues at positions 26 to 480 in the amino acid sequence represented by SEQ ID NO: 10 (excluding the signal peptide). […] Using 20 μl of serum after the heat treatment, the activity of exogenous alkaline phosphatase (human thermostable alkaline phosphatase) was measured. In the measurement of the activity, 20 μl of serum was mixed with 200 μl of 1 mg/ml p-nitrophenyl phosphate, and after causing reaction at room temperature for 30 minutes to 1 hour, the absorbance at 405 nm was measured using a […] (BioRad). […]
Measurement values of the alkaline phosphatase activity are expressed by average value±SEM (standard error of the mean). The measurement values obtained from the control group into which alkaline phosphatase gene was not injected are regarded as 1, and the measurement values of the transgenic mice were calculated based thereon.

B1: full-length Del-1: Del-1 protein, SEQ ID NO: 10, overexpressed in transgenic mice; secreted form residues 26 to 480 (protein, listed as Mus musculus)
chain: MKHLVAAWLLVGLSLGVPQFGKGDICNPNPCENGGICLSGLADDSFSCECPEGFAGPNCSSVVEVASDEEKPTSAGPCIPNPCHNGGTCEISEAYRGDTFIGYVCKCPRGFNGIHCQHNINECEAEPCRNGGICTDLVANYSCECPGEFMGRNCQYKCSGPLGIEGGIISNQQITASSTHRALFGLRKWYPYYARLNKKGLINAWTAAENDRWPWIQINLQRKMRVTGVITQGAKRIGSPEYIKSYKIAYSNDGKTWAMYKVKGTNEEMVFRGNVDNNTPYANSFTPPIKAQYVRLYPQICRRHCTLRMELLGCELSGCSEPLGMKSGHIQDYQITASSVFRTLNMDMFTWEPRKARLDKQGKVNAWTSGHNDQSQWLQVDLLVPTKVTGIITQGAKDFGHVQFVGSYKLAYSNDGEHWMVHQDEKQRKDKVFQGNFDNDTHRKNVIDPPIYARFIRILPWSWYGRITLRSELLGCAEEE
Consider B1, for which the “exogenous alkaline phosphatase activity in serum, transgenic mouse (TG) vs wild-type mouse (WT)” value is “about twice as high as that of the wild-type mouse (WT)”.
